Here are results for one protein from US20080008712.

For one series, the target named is T1, CDC25B1.
T1 chain: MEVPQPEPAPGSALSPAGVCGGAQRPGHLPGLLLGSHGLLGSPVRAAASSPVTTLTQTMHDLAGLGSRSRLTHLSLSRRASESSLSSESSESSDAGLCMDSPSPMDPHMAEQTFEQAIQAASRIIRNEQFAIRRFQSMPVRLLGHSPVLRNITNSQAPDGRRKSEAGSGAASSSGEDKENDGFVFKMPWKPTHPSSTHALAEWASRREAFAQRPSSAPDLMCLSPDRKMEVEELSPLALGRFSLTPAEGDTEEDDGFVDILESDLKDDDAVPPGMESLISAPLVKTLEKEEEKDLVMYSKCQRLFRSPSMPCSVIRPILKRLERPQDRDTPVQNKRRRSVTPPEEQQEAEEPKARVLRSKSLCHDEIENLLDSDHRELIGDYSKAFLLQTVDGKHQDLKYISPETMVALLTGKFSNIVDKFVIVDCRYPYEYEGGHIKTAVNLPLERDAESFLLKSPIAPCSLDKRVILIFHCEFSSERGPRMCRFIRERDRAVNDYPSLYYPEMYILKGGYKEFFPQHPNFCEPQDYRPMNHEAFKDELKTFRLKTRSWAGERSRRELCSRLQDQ

The next series concerns the target T2, CDC25B2.
T2 chain: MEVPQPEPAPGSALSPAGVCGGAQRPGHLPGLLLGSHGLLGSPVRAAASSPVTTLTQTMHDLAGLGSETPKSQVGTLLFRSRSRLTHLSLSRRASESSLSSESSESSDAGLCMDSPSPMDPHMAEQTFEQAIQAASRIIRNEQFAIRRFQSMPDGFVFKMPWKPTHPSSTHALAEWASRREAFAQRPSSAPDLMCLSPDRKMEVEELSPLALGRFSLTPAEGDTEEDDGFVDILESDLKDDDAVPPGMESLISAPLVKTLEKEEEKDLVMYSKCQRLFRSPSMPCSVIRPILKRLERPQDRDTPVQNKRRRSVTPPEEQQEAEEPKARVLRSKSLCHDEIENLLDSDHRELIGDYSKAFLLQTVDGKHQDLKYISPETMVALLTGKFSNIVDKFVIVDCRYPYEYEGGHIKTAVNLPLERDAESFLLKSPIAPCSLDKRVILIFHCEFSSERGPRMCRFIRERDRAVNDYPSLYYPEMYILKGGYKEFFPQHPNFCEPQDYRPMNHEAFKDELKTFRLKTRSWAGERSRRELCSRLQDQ

Series [1] deals with T3, CDC25B3 recombinant protein.
T3 chain: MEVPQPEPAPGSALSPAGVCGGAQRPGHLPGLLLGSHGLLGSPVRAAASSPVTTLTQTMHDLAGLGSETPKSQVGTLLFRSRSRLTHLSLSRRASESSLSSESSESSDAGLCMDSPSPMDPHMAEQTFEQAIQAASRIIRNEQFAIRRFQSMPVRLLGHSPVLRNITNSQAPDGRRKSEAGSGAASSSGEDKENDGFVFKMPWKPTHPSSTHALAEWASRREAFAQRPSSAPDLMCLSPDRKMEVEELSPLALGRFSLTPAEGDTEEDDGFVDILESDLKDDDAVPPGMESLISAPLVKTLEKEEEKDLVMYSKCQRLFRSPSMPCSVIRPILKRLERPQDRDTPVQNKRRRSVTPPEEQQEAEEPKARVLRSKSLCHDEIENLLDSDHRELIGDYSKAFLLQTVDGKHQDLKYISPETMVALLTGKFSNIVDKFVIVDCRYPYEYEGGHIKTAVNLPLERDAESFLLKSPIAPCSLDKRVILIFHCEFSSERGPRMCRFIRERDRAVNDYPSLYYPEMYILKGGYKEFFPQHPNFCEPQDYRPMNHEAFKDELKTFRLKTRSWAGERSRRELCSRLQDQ

Another series concerns the target T4, CDC25B4.
T4 chain: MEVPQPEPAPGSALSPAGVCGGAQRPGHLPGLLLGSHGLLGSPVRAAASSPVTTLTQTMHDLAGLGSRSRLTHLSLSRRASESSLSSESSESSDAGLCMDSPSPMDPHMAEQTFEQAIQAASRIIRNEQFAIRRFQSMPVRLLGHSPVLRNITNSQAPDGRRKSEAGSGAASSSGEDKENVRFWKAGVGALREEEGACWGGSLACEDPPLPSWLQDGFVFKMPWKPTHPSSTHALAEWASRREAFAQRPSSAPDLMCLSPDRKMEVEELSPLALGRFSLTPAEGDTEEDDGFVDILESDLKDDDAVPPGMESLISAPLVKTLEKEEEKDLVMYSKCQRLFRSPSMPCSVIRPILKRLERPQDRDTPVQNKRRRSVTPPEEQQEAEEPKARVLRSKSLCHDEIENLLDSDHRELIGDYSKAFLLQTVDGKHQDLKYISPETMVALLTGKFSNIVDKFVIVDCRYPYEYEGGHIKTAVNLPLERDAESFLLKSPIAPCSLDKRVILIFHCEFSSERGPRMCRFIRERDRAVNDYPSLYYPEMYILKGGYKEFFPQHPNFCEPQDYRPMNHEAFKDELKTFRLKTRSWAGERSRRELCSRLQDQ

The target in a further series is T5, CDC25B5.
T5 chain: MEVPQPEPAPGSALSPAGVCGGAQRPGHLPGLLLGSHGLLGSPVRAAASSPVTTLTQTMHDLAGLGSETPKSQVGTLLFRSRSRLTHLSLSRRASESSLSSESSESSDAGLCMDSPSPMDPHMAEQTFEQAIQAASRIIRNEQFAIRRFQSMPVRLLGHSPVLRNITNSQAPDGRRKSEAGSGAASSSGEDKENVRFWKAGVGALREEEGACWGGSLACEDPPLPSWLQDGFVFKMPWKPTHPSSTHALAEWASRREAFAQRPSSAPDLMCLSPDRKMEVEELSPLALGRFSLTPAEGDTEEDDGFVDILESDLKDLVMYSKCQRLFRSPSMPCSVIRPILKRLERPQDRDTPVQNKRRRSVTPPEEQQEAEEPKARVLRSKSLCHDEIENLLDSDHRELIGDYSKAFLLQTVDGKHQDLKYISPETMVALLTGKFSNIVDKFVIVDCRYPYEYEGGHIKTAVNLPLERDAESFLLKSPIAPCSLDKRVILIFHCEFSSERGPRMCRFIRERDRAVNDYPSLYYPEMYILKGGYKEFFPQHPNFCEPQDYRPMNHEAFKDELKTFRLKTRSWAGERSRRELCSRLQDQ

B1: recombinant Aurora A kinase (protein)
chain: MDRSKENCISGPVKATAPVGGPKRVLVTQQFPCQNPLPVNSGQAQRVLCPSNSSQRIPLQAQKLVSSHKPVQNQKQKQLQATSVPHPVSRPLNNTQKSKQPLPSAPENNPEEELASKQKNEESKKRQWALEDFEIGRPLGKGKFGNVYLAREKQSKFILALKVLFKAQLEKAGVEHQLRREVEIQSHLRHPNILRLYGYFHDATRVYLILEYAPLGTVYRELQKLSKFDEQRTATYITELANALSYCHSKRVIHRDIKPENLLLGSAGELKIADFGWSVHAPSSRRTTLCGTLDYLPPEMIEGRMHDEKVDLWSLGVLCYEFLVGKPPFEANTYQETYKRISRVEFTFPDFVTEGARDLISRLLKHNPSQRPMLREVLEHPWITANSSKPSNCQNKESASKQS
For B1, the in vitro phosphorylation entry is given as “the recombinant Aurora A kinase phosphorylates CDC25B1 on the serine 339” in the series with CDC25B1, “CDC25B2 on the serine 312” with CDC25B2, “CDC25B4 on the serine 374” with CDC25B4 and “CDC25B5 on the serine 361” with CDC25B5. Further, the “in vitro phosphorylation, MS/MS of the tryptic peptide 353-SVTPPEEQQEAEEPK-367” value in series [1] is “it is the serine 353 which is phosphorylated by the kinase”.
